The term Tm denotes the temperature at the midpoint of the melting transition.

For the data set the following is noted: Hordeum vulgare, MES 450 mM, reversible: yes, whole UniProt chain shown; for Tm / unfolding enthalpy (calorimetric) / unfolding enthalpy (van 't Hoff): Thermal, DSC.
The mark [1] stands for this setting: pH 6.3, 25 °C, GdnHCl, Fluorescence.

B1: Subtilisin-chymotrypsin inhibitor-2A wild type, P01053 (protein)
chain: MSSVEKKPEGVNTGAGDRHNLKTEWPELVGKSVEEAKKVILQDKPEAQIIVLPVGTIVTMEYRIDRVRLFVDKLDNIAQVPRVG
Regarding B1, under “pH 3”, the melting temperature (Tm) stood at 64 °C, the “unfolding enthalpy (calorimetric)” value stood at 61 kcal/mol and the “unfolding enthalpy (van 't Hoff)” value stood at 61.2 kcal/mol. Where the note is “pH 3.5”, the Tm was found to be 73.8 °C, the “unfolding enthalpy (calorimetric)” value worked out at 67 kcal/mol and the “unfolding enthalpy (van 't Hoff)” value was determined as 66.9 kcal/mol. Also, under setting [1], the denaturant m value came out at 1.89 kcal/mol/M, the “denaturant midpoint (higher = more stable)” value was found to be 3.99 M and the unfolding free energy worked out at 7.53 kcal/mol.

Values taken from FireProtDB (doi:10.1021/bi00093a001).
